Results as given in patent publication US20100075897A1, “METHOD FOR S[…] BIOACTIVE PEPTIDES AND APPLICATION THEREOF” (JINAN UNIVERSITY, priority 2008, published 2010).
Positions count from the first letter of the chain named.

Key:
GLP-1 receptor [1] = molecular target: T1, GLP-1 receptor; experiment: competition with 125I-GLP-1 on CHO/GLP-1R cells; polypeptide digested with thrombin and DPP IV first
T1 chain: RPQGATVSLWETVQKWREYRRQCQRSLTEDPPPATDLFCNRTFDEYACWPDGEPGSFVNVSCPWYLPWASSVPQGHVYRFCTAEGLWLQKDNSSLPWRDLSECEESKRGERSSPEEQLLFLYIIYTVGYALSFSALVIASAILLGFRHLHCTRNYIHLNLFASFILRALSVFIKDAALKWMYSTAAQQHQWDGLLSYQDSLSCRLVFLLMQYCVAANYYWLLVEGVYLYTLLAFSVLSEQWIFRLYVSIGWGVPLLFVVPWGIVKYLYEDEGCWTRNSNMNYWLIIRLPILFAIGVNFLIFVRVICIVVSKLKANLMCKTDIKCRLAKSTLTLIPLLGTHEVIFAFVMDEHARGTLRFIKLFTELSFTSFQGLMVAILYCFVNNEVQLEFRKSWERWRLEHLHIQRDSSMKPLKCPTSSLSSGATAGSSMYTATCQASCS
Method: The actual experimental steps were extracted from method as described by Montrose-Rafizadeh with proper modification as following:
(2) After cultured, removing supernatant, washing cells with cold PBS for three times, and then mixing with 0.5 mL 0.5 mol/L NaOH and 0.1% (mg/mL) SDS for 10 minutes. Irradiation of the cell lysis was determined by Apec-Series […] (ICN Biomedicals, Inc., Costa Mesa, Calif.).

GLP-1 receptor [2] = molecular target: T1, GLP-1 receptor; experiment: cell-based or functional assay

B1: DP4.3 fusion polypeptide (peptide)
peptide: PNICLPRWGCLWDFNPRGSHAEGTFTSDVSSYLEGQAAKEFIAWLVKGRG
notes: ABP-LK-GLP fusion polypeptide; also called ABP-LK-GLP
**Q.** With B1 as the binder, how does the IC50 (GLP-1 receptor [1]) read?
**A.** Its IC50 is 2.1 nM.

**Q.** And the “cAMP production EC50” value (GLP-1 receptor [2])?
**A.** Its value is 18 nM.

B2: DP6.1 fusion polypeptide (peptide)
peptide: PLPHSHRAHSLPPFNPRGAHAEGTFTSDVSSYLEGQAAKEFIAWLVKGRG
notes: as for B1
**Q.** Which results are given for B2?
**A.** IC50 (GLP-1 receptor [1]): 2 nM; cAMP production EC50 (GLP-1 receptor [2]): 23 nM

B3: DP6.2 fusion polypeptide (peptide)
peptide: B2 peptide with A19P
notes: as for B1
**Q.** Which IC50 (GLP-1 receptor [1]) does the source give for B3 here?
**A.** Its IC50 is 2.1 nM.

**Q.** What about the “cAMP production EC50” value (GLP-1 receptor [2]) of the same binder?
**A.** Its value is 23 nM.

B4: DP8.1 fusion polypeptide (peptide)
peptide: PSLLHWTHKIPALFNPRGAHAEGTFTSDVSSYLEGQAAKEFIAWLVKGRG
notes: as for B1
**Q.** B4 was tested. Which IC50 (GLP-1 receptor [1]) did it give?
**A.** Its IC50 is 2.2 nM.

**Q.** And the “cAMP production EC50” value (GLP-1 receptor [2])?
**A.** Its value is 24 nM.

B5: DP8.2 fusion polypeptide (peptide)
peptide: B4 peptide with A19P
notes: as for B1
**Q.** How did the IC50 (GLP-1 receptor [1]) turn out when B5 was run?
**A.** The IC50 was 1.9 nM.

**Q.** What about the “cAMP production EC50” value (GLP-1 receptor [2]) of the same binder?
**A.** The value was 22 nM.

B6: DP8.3 fusion polypeptide (peptide)
peptide: PSSLLHWTHKIPALFNPRGSHAEGTFTSDVSSYLEGQAAKEFIAWLVKGRG
notes: ABP-LK-GLP fusion polypeptide, copied as printed with PSS at the N-terminus (DP8.1 and DP8.2 have PS); also called ABP-LK-GLP
**Q.** What does the source list for B6?
**A.** IC50 (GLP-1 receptor [1]): 2.5 nM; cAMP production EC50 (GLP-1 receptor [2]): 23 nM

B7: M3.1 fusion polypeptide (peptide)
peptide: DICLPRWGCLWEFNPRGAHAEGTFTSDVSSYLEGQAAKEFIAWLVKGRG
notes: as for B1
**Q.** Which results are given for B7?
**A.** IC50 (GLP-1 receptor [1]): 2.2 nM; cAMP production EC50 (GLP-1 receptor [2]): 22 nM

B8: M3.2 fusion polypeptide (peptide)
peptide: B7 peptide with A18P
notes: as for B1
**Q.** With B8 as the binder, how does the IC50 (GLP-1 receptor [1]) read?
**A.** The IC50 was 2.1 nM.

**Q.** And the “cAMP production EC50” value (GLP-1 receptor [2])?
**A.** Its value is 21 nM.

B9: M4.2 fusion polypeptide (peptide)
peptide: B7 peptide with D1N, E12D, A18P
notes: as for B1
**Q.** Which results are given for B9?
**A.** IC50 (GLP-1 receptor [1]): 2.2 nM; cAMP production EC50 (GLP-1 receptor [2]): 21 nM

B10: M4.3 fusion polypeptide (peptide)
peptide: B7 peptide with D1N, E12D, A18S
notes: as for B1
**Q.** What does the source list for B10?
**A.** IC50 (GLP-1 receptor [1]): 2.2 nM; cAMP production EC50 (GLP-1 receptor [2]): 19 nM

B11: M6.1 fusion polypeptide (peptide)
peptide: LPHSHRAHSLPPFNPRGAHAEGTFTSDVSSYLEGQAAKEFIAWLVKGRG
notes: as for B1
**Q.** For B11, which IC50 (GLP-1 receptor [1]) is on record?
**A.** The IC50 was 2.2 nM.

**Q.** What about the “cAMP production EC50” value (GLP-1 receptor [2]) of the same binder?
**A.** Its value is 24 nM.

B12: M6.2 fusion polypeptide (peptide)
peptide: B11 peptide with A18P
notes: as for B1
**Q.** With B12 as the binder, how does the IC50 (GLP-1 receptor [1]) read?
**A.** The IC50 was 2.3 nM.

**Q.** What about the “cAMP production EC50” value (GLP-1 receptor [2]) of the same binder?
**A.** Its value is 21 nM.

B13: M8.1 fusion polypeptide (peptide)
peptide: SLLHWTHKIPALFNPRGAHAEGTFTSDVSSYLEGQAAKEFIAWLVKGRG
notes: as for B1
**Q.** Which IC50 (GLP-1 receptor [1]) does the source give for B13 here?
**A.** The IC50 was 2.2 nM.

**Q.** What about the “cAMP production EC50” value (GLP-1 receptor [2]) of the same binder?
**A.** The value was 24 nM.

B14: M8.2 fusion polypeptide (peptide)
peptide: B13 peptide with A18P
notes: as for B1
**Q.** Which IC50 (GLP-1 receptor [1]) does the source give for B14 here?
**A.** Its IC50 is 1.9 nM.

**Q.** What about the “cAMP production EC50” value (GLP-1 receptor [2]) of the same binder?
**A.** The value was 21 nM.

B15: M8.3 fusion polypeptide (peptide)
peptide: B13 peptide with A18S
notes: as for B1
**Q.** What does the source list for B15?
**A.** IC50 (GLP-1 receptor [1]): 2.2 nM; cAMP production EC50 (GLP-1 receptor [2]): 21 nM

B16: PP6.2 fusion polypeptide (peptide)
peptide: B11 peptide with G17P, A18P
notes: as for B1
**Q.** B16 was tested. Which IC50 (GLP-1 receptor [1]) did it give?
**A.** Its IC50 is 2.3 nM.

**Q.** And the “cAMP production EC50” value (GLP-1 receptor [2])?
**A.** Its value is 21 nM.

B17: PA6.2 fusion polypeptide (peptide)
peptide: B11 peptide with G17P
notes: as for B1
**Q.** B17 was tested. Which IC50 (GLP-1 receptor [1]) did it give?
**A.** Its IC50 is 2.2 nM.

**Q.** What about the “cAMP production EC50” value (GLP-1 receptor [2]) of the same binder?
**A.** Its value is 23 nM.

B18: DP3.1 fusion polypeptide (peptide)
peptide: B1 peptide with N2D, D13E, S19A
notes: as for B1
**Q.** Which IC50 (GLP-1 receptor [1]) does the source give for B18 here?
**A.** Its IC50 is 2.1 nM.

**Q.** And the “cAMP production EC50” value (GLP-1 receptor [2])?
**A.** Its value is 23 nM.

B19: DP3.2 fusion polypeptide (peptide)
peptide: B1 peptide with N2D, D13E, S19P
notes: as for B1
**Q.** B19 was tested. Which IC50 (GLP-1 receptor [1]) did it give?
**A.** The IC50 was 2.3 nM.

**Q.** What about the “cAMP production EC50” value (GLP-1 receptor [2]) of the same binder?
**A.** The value was 19 nM.

B20: DP3.3 fusion polypeptide (peptide)
peptide: B1 peptide with N2D, D13E
notes: as for B1
**Q.** Which results are given for B20?
**A.** IC50 (GLP-1 receptor [1]): 2.3 nM; cAMP production EC50 (GLP-1 receptor [2]): 21 nM
